Experiment [1] has as its target T1, VEGFR2.
T1 construct: also called KDR
In words: Biacore.
T1 sequence (P35968 20-764): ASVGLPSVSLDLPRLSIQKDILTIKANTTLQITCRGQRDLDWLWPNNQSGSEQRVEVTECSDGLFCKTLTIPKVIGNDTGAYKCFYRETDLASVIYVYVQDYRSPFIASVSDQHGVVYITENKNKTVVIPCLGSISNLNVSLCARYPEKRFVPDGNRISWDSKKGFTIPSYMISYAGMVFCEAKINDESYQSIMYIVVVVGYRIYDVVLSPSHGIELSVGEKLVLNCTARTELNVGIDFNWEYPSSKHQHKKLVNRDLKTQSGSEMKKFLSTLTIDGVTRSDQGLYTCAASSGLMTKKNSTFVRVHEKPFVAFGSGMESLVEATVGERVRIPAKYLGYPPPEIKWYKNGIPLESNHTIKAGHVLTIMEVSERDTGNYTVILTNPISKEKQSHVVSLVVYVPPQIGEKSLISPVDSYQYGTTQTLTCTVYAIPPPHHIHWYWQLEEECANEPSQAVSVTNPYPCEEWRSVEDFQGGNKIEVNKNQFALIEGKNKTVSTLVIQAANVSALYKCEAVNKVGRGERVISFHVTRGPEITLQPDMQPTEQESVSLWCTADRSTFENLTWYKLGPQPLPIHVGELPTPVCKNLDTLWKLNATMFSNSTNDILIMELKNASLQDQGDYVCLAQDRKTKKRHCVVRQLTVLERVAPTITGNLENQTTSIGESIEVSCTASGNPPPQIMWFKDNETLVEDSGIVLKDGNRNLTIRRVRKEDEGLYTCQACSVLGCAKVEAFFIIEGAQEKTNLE

In experiment [2] the target is T1, VEGFR2. Kind of experiment: EC50 measurement, summary table; assay not stated.
Experiment [3] concerns the target T1, VEGFR2. In words: IC50 measurement, summary table; assay not stated.
For experiment [4], the target named is T2, VEGFR2 on HUVECs (human, UniProt P35968 20-1356). Kind of experiment: cell-based or functional assay.
The target in experiment [5] is soluble VEGFR2-Fc. Kind of experiment: blocking of VEGF binding to soluble VEGFR2-Fc (FIG. 2).
Sequence of soluble VEGFR2-Fc (P35968 20-764): as above
Experiment [6] addresses T2, VEGFR2 on HUVECs. Kind of experiment: cell binding to HUVE cells, flow cytometry (FIG. 3 legend); FIG. 3 legend, unrounded value. The method, then: (§1) This example illustrates in vitro data for VK-B8 cellular EC₅₀ measurements. Protocol: 50,000 HUVECs were aliquoted into the wells of a 96-well, v-bottom plate in 100 ul FACS Buffer (PBS+2% FBS). A twelve point, 3× dilution curve of VK-B8 was made in FACS Buffer starting at 50 μg/ml (3.33×10⁻⁷ M). Cells were spun down, washed 1× with FACS Buffer, and then resuspended in 25 μl of antibody solution in triplicate. […] Cells were further incubated for 0.5 hr. and then washed 1× with FACS Buffer. Cells were resuspended in 25 μl FACS Buffer and the median fluorescence intensity in the FL2-H channel was determined using the Intellicyt HTFC flow cytometer.
(§2) Results: The cell binding EC₅₀ for VK-B8 on HUVECs was determined to be 1.3 nM. Data was analyzed and plotted in Graph Pad Prizm using non-linear regression fit. Data points are shown (FIG. 4) as the median fluorescence intensity (MFI) of positively labeled cells +/− Std Error.
On the technique in general: A flow cytometer gives signals particle by particle.

For experiment [7], the target named is T2, VEGFR2 on HUVECs. In words: flow cytometry on HUVECs, MFI against antibody concentration, non-linear fit (Example 6); unit taken from the axis label 'Antibody Conc (M)', log scale. The method, then: as §1, §2
In experiment [8] the target is soluble VEGFR2-Fc. In words: blocking of VEGF binding to soluble VEGFR2-Fc, VK-B8 titrated, readout OD 450; plate format not described; unit taken from the axis label 'VK-B8 [log M]'.

Substitutions are numbered along the chain they refer to.

T2 sequence (P35968 20-1356): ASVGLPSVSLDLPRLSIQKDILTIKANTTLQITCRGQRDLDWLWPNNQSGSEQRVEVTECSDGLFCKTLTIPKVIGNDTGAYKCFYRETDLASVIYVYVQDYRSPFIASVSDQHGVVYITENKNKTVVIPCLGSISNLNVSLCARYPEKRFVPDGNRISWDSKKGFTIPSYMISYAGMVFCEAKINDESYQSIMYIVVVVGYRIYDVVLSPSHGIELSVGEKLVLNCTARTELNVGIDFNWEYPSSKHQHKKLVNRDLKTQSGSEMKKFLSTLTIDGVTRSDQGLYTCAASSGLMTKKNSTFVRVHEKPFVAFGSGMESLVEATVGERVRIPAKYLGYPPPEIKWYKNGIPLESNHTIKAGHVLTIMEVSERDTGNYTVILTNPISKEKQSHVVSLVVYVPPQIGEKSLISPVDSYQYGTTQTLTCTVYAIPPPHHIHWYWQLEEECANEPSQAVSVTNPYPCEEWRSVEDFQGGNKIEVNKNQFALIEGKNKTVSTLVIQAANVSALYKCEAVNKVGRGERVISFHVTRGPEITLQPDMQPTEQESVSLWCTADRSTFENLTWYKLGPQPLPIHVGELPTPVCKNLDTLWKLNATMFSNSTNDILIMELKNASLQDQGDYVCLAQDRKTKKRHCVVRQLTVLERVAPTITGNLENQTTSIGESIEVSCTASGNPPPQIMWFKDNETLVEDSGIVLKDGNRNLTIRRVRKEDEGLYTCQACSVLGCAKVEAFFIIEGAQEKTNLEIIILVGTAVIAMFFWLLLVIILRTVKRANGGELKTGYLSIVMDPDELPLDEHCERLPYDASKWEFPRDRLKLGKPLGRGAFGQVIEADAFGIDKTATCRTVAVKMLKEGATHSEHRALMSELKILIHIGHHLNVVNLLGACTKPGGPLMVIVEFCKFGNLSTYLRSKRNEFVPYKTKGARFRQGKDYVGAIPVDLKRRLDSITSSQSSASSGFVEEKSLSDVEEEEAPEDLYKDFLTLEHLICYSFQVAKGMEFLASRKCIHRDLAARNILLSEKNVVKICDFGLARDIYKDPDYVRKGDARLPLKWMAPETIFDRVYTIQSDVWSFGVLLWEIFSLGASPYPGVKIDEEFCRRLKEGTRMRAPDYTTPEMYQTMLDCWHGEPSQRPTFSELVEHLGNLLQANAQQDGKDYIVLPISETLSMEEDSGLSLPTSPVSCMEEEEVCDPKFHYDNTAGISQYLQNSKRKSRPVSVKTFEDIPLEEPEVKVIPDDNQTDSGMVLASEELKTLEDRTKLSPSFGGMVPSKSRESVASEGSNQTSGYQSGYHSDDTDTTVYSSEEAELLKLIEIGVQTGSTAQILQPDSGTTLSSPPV

B1: VB-A3 (antibody, V domains shown)
VH: QVQLVQSGAEVKKPGASVKVSCKASGHTFNYYYMHWVRQAPGQGLEWMGQTNLNSGGTNYAPKFQGRVTMTRDTSISTAYMELSSLRSDDTAVYYCANLNSGWFHFENWGQGTLVTVSS
VL: SYELTQPPSVSVAPGKTASITCGGNNIGSKSVHWYQQKPGQAPVLVIYYDRDRPSGIPERFSGSNSGNTATLTISRVEAGDEADYYCQVWDSSSYHPVFGGGTKLTVL
As for B1, in experiment [1], the Kd stood at 3.09 nM, the koff came to 0.012 s⁻¹ and the kon came out at 3.88e+06 M⁻¹ s⁻¹.

B2: VB-A9 (antibody, V domains shown)
VH: EVQLVESGGGLVKPGGSLRLSCAASGFTFSSYSMNWVRQAPGKGLEWVSSISSGSSYIYYADSLKGRFTISRDNAKNSLYLQMNSLRAEDTAVYYCARDFGNWGQGTLVTVSS
VL: QSALTQPRSVSASPGQSVTISCTGTSSDVGGYDYVSWYQQHPGKAPKLMIYEVSNRPSGVSNRFSGSKSGNTASLSISGLQAEDEADYYCSSYTSTSSPVVFGGGTKLTVL
In experiment [1], B2 returned a dissociation constant (Kd) of 3.02 nM, a koff of 0.000496 s⁻¹ and an on-rate (kon) of 164000 M⁻¹ s⁻¹. This molecule returned a half-maximal effective concentration (EC50) in experiment [2] of 0.25 nM. In addition, the IC50 in experiment [3] turned out to be 2.05 nM.

B3: RV-H5 (antibody, V domains shown)
VH: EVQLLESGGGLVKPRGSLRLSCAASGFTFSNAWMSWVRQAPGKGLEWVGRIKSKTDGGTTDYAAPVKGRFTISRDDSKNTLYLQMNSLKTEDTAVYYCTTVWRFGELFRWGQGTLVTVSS
VL: QAGLTQPPSVSVSPGQTASITCSGDKLGDKYISWYQQKPGQSPVMVIFQDTKRPSGIPERFSGSNSGNTATLTISGTQAMDEADYYCQAWDTSTVFGGGTKLTVL
In experiment [1], B3 had an equilibrium dissociation constant (Kd) of 0.815 nM, a koff of 0.00225 s⁻¹ and a kon of 2.76e+06 M⁻¹ s⁻¹. Besides, in experiment [2], a half-maximal response (EC50) required 0.323 nM. The molecule also yielded a concentration for half-maximal inhibition (IC50) in experiment [3] of 5.79 nM.

B4: VB-E1 (antibody, V domains shown)
VH: QVQLVESGAEVKKPGASVKVSCKASGYTFTNYYIHWVRQAPGQGLEWMGIINPSSGSTNYAQKFQGRVTMTRDTSTSTVYMELSSLRSEDTAVYYCARQRWDLLDDAFDIWGQGTMVTVSS
VL: DIVMTQSPDSLAVSLGERATINCKTSQSVLYNANNKNYLNWYQQKPGQPPKLLIYWASARESGVPDRFSGSGSGTDFTLTIRSLQPDDFATYYCQQAISFPLTFGGGTKVEIK
In turn, B4 gave an EC50 in experiment [2] of 0.5 nM. In other words, the sub-nanomolar range.

B5: VK-B8 (antibody, V domains shown)
VH: QVQLVQSGAEVKKPGSSVKVSCKAYGGTFGSYGVSWVRRAPGQGLEWMGRLIPIFGTRDYAQKFQGRVTLTADESTNTAYMELSSLRSEDTAVYYCARDGDYYGSGSYYGMDVWGQGTLVTVSS
VL: ETTLTQSPATLSVSPGERATVSCRASQSLGSNLGWFQQKPGQAPRLLIYGASTRATGIPARFSGSGSGTEFTLTISSLQSEDFAVYFCQQYNDWPITFGQGTRLEIK
notes: The printed VH starts with MA; also called STI-A0168; anti-VEGFR2 antibody VK-B8
In experiment [1], B5 came in with an equilibrium dissociation constant (Kd) of 0.121 nM, an off-rate (koff) of 8.73e-05 s⁻¹ and a kon of 724000 M⁻¹ s⁻¹. In experiment [4], the “IC50 for VK-B8 inhibition of VEGF-induced p44/p42 MAPK (Erk1/2) phosphorylation in HUVECs, phospho-ELISA” value was determined as 0.08 nM; the “IC50 value for the inhibition of VEGF-induced HUVEC cell migration by VK-B8 (FIG. 14 legend)” value amounted to 0.53 nM; the “IC50 value for the inhibition of VEGF-induced HUVEC cell proliferation by VK-B8 (FIG. 13 legend)” value came to 14.9 nM; the “IC50 value for the inhibition of VEGF-induced HUVEC migration by VK-B8 (modified Boyden chamber)” value was 0.5 nM. Further, in experiment [4], the “IC50 value for the inhibition of VEGF-induced HUVEC proliferation by VK-B8” value turned out to be 14 nM. In experiment [2], this molecule showed a half-maximal effective concentration (EC50) of 0.25 nM. Moreover, the IC50 in experiment [3] was 2.04 nM. For the same molecule, in experiment [5], the concentration for half-maximal inhibition (IC50) is around 0.77 nM. Moreover, the EC50 in experiment [6] is around 1.3 nM. In experiment [7], this molecule showed an EC50 of 1.3 nM. In experiment [8], the half-inhibitory concentration (IC50) is 0.771 nM.

B6: VR-B4 (antibody, V domains shown)
VH: B5 VH with L119T
VL: SYELTQPASVSGSPGQSITISCTGSSSDVGGYNFVSWYRQHAGKAPKLMIYDVTNRPSGVSTRFSGSKSGTTASLTISGLQPDDEAHYYCSSYTTTSTWVFGGGTKLTVL
In experiment [2], B6 returned an EC50 of 24.3 nM.

B7: VR-E3 (antibody, V domains shown)
VH: EVQLVESGGGLVKPGGSLRLSCAASGFTFSSYSMNWVRQAPGKGLEWVSSISSASSYIYYADSVKGRFTISRDNAKKSLYLQLNSLTVEDTAVYYCAREYWGSPDYWGRGTLVTVSS
VL: QPVLTQPPSASGSPGQSVTISCTGTSSDVGGYNYVSWYQQHPGKAPKLMIYDVNNRPSGVPDRFSGSKSGNTASLTISGLQAEDEADYYCSSYTSSSTRVFGGGTKLTVL
In turn, B7 registered an EC50 in experiment [2] of 1.29 nM. The same molecule displayed an IC50 in experiment [3] of 9.32 nM.

B8: VR-B2 (antibody, V domains shown)
VH: EVQLLESGGGLVQPGGSLRLSCAASGFTFSSYAMHWVRQAPGKGLEWVAVISYDGSNKYYADSVKGRFTISRDNSKNTLYLQMNSLRAEDTAVYYCARDLGAASYWYFDLWGRGTLVTVSS
VL: DIQLTQSPPSVSASVGDRVTITCRASQDISTWLAWYQQKPGSAPKVLIYAASTFQSGVPSRFRGSGSGTYFTLTISGLQPEDFATYYCQQGNSFPPTFGQGTKLEIK
Molecule B8 yielded an EC50 in experiment [2] of 0.747 nM.

A word on the Kd: it is the concentration at which binding is half-saturated. A high value points to lower affinity. By koff is commonly meant a measure of how fast the partners let go of each other. Low values mean a long-lived complex, high ones a short-lived complex. By kon is commonly meant the rate constant with which the complex forms. Higher therefore signals fast association. As usually defined, the EC50 is the concentration at which the effect is half-maximal. Low values mean greater potency, high ones weaker potency. A word on the IC50: it is the concentration at which inhibition is half-maximal. High values mean a need for much substance, low ones inhibition by little substance.
